According to the nanobody polyreactivity screen of Harvey et al. (2022):

Experiment: yeast display, Sf9 membrane polyspecificity reagent, FACS + sequencing; frameworks hold sequencing errors
Procedure, shortened: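 Galactose-induced (36–48 hours) yeast carrying a synthetic nanobody display library were exposed to 10% biotinylated, detergent-solubilized Sf9 membrane reagent at 4 °C for 1 hour. FACS followed streptavidin microbead enrichment, using low and high (top ~1%) gates for expression (anti-HA) and reagent binding (streptavidin). Colony PCR, MiSeq 2 × 250 sequencing and CDR-length filtering followed. Labels for polyreactivity reflect the gate of origin.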

Sequence | polyreactivity (PSR sort gate)
QVQLVESGGGLVQAGGSLRLSCAASGFTFPYYAKGWYRQAPGKERELVAASTYSGDSTDYADSVKGRFTISRDNAKNTVYLQMNSLKPEDTAVYYCNVTPDCAVTDDYWGQGTQVTVSS | low polyreactivity
QVQLVESGGGLVQAGGSLRLSCAASGIPRNTMGWYRQAPGKERELVASISTSGGSTYYADSVKGRFTISRDNAKNTVYLPMNSLKPEDTAVYYCAKKGYASRYFIYDYWGQGTQVTVSS | low polyreactivity
QVQLVESGGGLVQAGGILRLSCAASGFIIRGNVMGWYRQAPGKERELVAAISGRGGSTYYADSVKGRFTISRDNAKNTVYLQMNSLKPEDTAVYYCNAAGLYNSRLDYWGQGTQVTVSS | high polyreactivity
QVQLVESGGGLVQAGGSLRLSCAASGRTFALNAMGWYRQAPGKERELVAAISWSSGRTYYADSVKGRFTISRDNAKNTVYLQMNSLKPEDTAVYYCAALVAHKGDYWGQGTQVTVSS | high polyreactivity
QVKLVESGGGLVQAGGSLRLSCAASGSIFYTYAMGWYRPAPGKERELVAAISSGGSTDYADSVKGRFTISRDNAKNTVYLQMNSLKPEDTAVYYCAAVAVELASEYDYWGQGTQVTVSS | low polyreactivity
QVQLVESGGGLVQAGASLRLSCAASGSIFYGNTMGWYRQAPGKERELVAAISSGGSTKYADSVKGRFTISRDNAKNTVYLQMNSLKPEDTAVYYCAADLPRYWVTWMDYWGQGTQVSVSS | low polyreactivity
QVQLVESGGGLVQAGGSLRLSCAASGRIFYGYAMGWYRQAPGKERELVAAITWIDGSTYYADSVKGRFTISRDNAKNTVYLQMNSLKPEDTAVYFCNKTWYGDSGTRTYWGQVTQVTVSS | low polyreactivity
QVQLVESAGGLVQAVGSLRLSCAASGRICGIYAMGWYRQAPGKERELVAAISFIGGRTYYADSVKGRFTISRDNAKNTVYLQMNSLKPEDTAVYDCAARTVPSSRREYWGQGTQVTVSS | high polyreactivity
QVQLVESGGGLVQAGGSLRLICAASGSIFVIYAMGWYRQAPGKERELVAAITSGGNTTYADSVKGRFTISRDNAKNTVSLQMNSLKPEDTAVYYCSADYPWEYDYWGQGTQVTVSS | low polyreactivity
QVQHVESGGVIVQAGGSHRLSCAASGHIFFYYTMGWYRQAPGKERELVAGITIGGSTNYADSVKGRFTISRDTAKNTVYLQMNSLKPEDTAVYYCNVVKYVYIYSYWEYYYWGQGTQVTVSS | low polyreactivity
QFQLVESGGGLVQAGGSLRLSCAASGSTIIKNAMGWYRQAPGKERELVAAINWSVTRTYYADSVKGRFTISRDNAKNTVYLQMNSLKPEDTAVYYCAKVIARFVRYDYWGQGTQVTVSS | high polyreactivity
QVQLVESGGGLVQAGGSLSLRCADSGRTLWAYAMGGYREAAGNDRELVAAISASGGSTYYADSVKGRFTISRDIAKNTVYLQMNSLKPADTAVYYCRLVSKGRLYDYCGQGTQVTVSS | high polyreactivity
QVQLVESGGGLVQAGGSLRLSCAASGITFQSNAMGWYRQAPGKERELVAGISGSGTSTYYADSVKGRFTISRDNAKNTVYLQMNSLKPEDTAVYYCAAAQSKYSFYWGDYYYWGQGTQVTVSS | high polyreactivity
QVQLVESGGGLDQAGGSLRLSCAASGRIFTYNTMGWYRQAPGKEREFVASITYSGSSTYYADSVKGRFTISRDNAKNTVYLEMNSLKPEVTAVYYCAHRYGYSDGDYWGQGTQVTVSS | low polyreactivity
QVQLVESGGGLVQAGGSLRLSCAASGSISLVYAMGWYRQATGKERELVAVINHADDTSYADSVKGRFTISRDNAKNTVYLQMNSLKPEDTADYYCAAESSYFVALTQFYTVEFYYWGQGTQLTVSS | low polyreactivity
QVQLVESGGGLVQAGGSLRLSCAASGRTFARYTMGWYRQAPGKERELVAAITSGGGSTYYADSVKGRFTISRDNAKNTVYLQMNSLKPEDTAVYYCNARRYYYITGRYGYWGQGTQVTVSS | high polyreactivity
QVQLQESVGGLVQAGGSLRLSCASSGSISNSAAMGWYRQAPGKERELVVSIGHGASSNYADSVKGRFTISRDNAKNTVYLQMNSLKPEDTAVYYCAAYPGFLDGFFYWGQSTQVTVSS | high polyreactivity
